Data taken from US20180230213A1 (AVEO PHARMACEUTICALS, published 2018).
Changes are numbered by the printed parent chain. Names may count otherwise.

T1: monomeric recombinant human Notch3 extracellular domain (containing EGF like domains 1-11) fusion protein (human, UniProt Q9UM47 40-467)
T1 construct: domain: EGF like domains 1-11; also called monomeric rhNotch3
T1 sequence (looked up): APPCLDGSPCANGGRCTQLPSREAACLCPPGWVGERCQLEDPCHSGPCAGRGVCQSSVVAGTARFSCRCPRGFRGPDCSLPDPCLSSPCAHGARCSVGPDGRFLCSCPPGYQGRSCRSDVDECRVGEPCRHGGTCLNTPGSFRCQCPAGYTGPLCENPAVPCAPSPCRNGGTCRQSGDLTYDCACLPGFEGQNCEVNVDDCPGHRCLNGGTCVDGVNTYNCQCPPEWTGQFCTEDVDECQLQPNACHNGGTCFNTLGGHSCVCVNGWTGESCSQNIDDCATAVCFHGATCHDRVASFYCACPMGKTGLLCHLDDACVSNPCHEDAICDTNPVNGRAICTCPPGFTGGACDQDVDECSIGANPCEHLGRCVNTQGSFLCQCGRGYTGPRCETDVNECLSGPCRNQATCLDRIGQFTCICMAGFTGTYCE

B1: Hu4F11-70 (antibody, human IgG1, kappa, V domains shown)
VH: EVQLLESGGGLVQPGGSLRLSCAASGFTFSHYDMSWVRQAPGKGLEWVSYISRGGGSTYYPDSVKGRFTISRDNSKNTLYLQMNSLRAEDTAVYYCGRHATTAYWYFDVWGQGTMVTVSS
VL: DVVMTQTPLSLSVTPGQPASISCRSSQSLVHTHGNTYLHWYLQKPGQSPQLLIYKVSNRFSGVPDRFSGSGSGTDFTLKISRVEAEDVGVYFCSQSTHVPWTFGQGTKVEIKR
notes: Humanized, human IgG1 kappa; Hv3-23 A28T S31H T62S heavy + Kv2D-29 N28H kappa
B2: Hu4F11-73 (antibody, human IgG1, kappa, V domains shown)
VH: B1 VH with H31N
VL: B1 VL with H33Y
notes: Humanized, human IgG1 kappa; Hv3-23 A28T S31N T62S heavy + Kv2D-29 N28Y kappa
B3: Hu4F11-75 (antibody, human IgG1, kappa, V domains shown)
VH: B1 VH with H31S
VL: B1 VL with H33Y
notes: Humanized, human IgG1 kappa; Hv3-23 A28T T62S heavy + Kv2D-29 N28Y kappa
B4: Hu4F11-77 (antibody, human IgG1, kappa, V domains shown)
VH: B1 VH with H31N
VL: B1 VL with H33Q
notes: Humanized, human IgG1 kappa; Hv3-23 A28T S31N T62S heavy + Kv2D-29 N28Q kappa
B5: Hu4F11-78 (antibody, human IgG1, kappa, V domains shown)
VH: B1 VH
VL: B1 VL with H33Q
notes: Humanized, human IgG1 kappa; Hv3-23 A28T S31H T62S heavy + Kv2D-29 N28Q kappa
B6: Hu4F11-76 (antibody, human IgG1, kappa, V domains shown)
VH: B1 VH with T28A
VL: B1 VL with H33Y
notes: Humanized, human IgG1 kappa; Hv3-23 S31H T62S heavy + Kv2D-29 N28Y kappa
B7: Hu4F11-69 (antibody, human IgG1, kappa, V domains shown)
VH: B1 VH with H31N
VL: B1 VL
notes: Humanized, human IgG1 kappa; Hv3-23 A28T S31N T62S heavy + Kv2D-29 N28H kappa
B8: Hu4F11-74 (antibody, human IgG1, kappa, V domains shown)
VH: B1 VH
VL: B1 VL with H33Y
notes: Humanized, human IgG1 kappa; Hv3-23 A28T S31H T62S heavy + Kv2D-29 N28Y kappa
B9: Hu4F11-32 (antibody, human IgG1, kappa, V domains shown)
VH: B1 VH with T28A, H31S, S63T
VL: B1 VL with H33N
notes: Humanized, human IgG1 kappa; Sh4F11 Hv3-23 heavy + Hu4F11 Kv2D-29 kappa
B10: Hu4F11-79 (antibody, human IgG1, kappa, V domains shown)
VH: B1 VH with H31S
VL: B1 VL with H33Q
notes: Humanized, human IgG1 kappa; Hv3-23 A28T T62S heavy + Kv2D-29 N28Q kappa
B11: Hu4F11-71 (antibody, human IgG1, kappa, V domains shown)
VH: B1 VH with H31S
VL: B1 VL
notes: Humanized, human IgG1 kappa; Hv3-23 A28T T62S heavy + Kv2D-29 N28H kappa
B12: Hu4F11-80 (antibody, human IgG1, kappa, V domains shown)
VH: B1 VH with T28A
VL: B1 VL with H33Q
notes: Humanized, human IgG1 kappa; Hv3-23 S31H T62S heavy + Kv2D-29 N28Q kappa
B13: Hu4F11-72 (antibody, human IgG1, kappa, V domains shown)
VH: B1 VH with T28A
VL: B1 VL
notes: Humanized, human IgG1 kappa; Hv3-23 S31H T62S heavy + Kv2D-29 N28H kappa

Target: T1, monomeric recombinant human Notch3 …
Assay: SPR BIAcore T100, monomeric rhNotch3 analyte, 37 C, average of Table 16 and additional measurements
Method: (§1) Goat anti-human IgGs (Fc fragment specific, Jackson ImmunoResearch, West Grove, Pa.) were immobilized on carboxymethylated dextran CM4 sensor chips by amine coupling, according to a standard protocol. Analyses were performed at 25 and 37° C. using PBS containing 0.05% surfactant P20 as running buffer. The antibodies were captured in individual flow cells at a flow rate of 10 μL/minute. Injection time was varied for each antibody to yield an Rmax between 30 and 60 RU. Buffer or Notch3 protein diluted in running buffer was injected sequentially over a reference surface (no antibody captured) and the active surface (antibody to be tested) for 240 seconds at 60 μL/minute. The dissociation phase was monitored for up to 900 seconds. The surface was then regenerated with two 60-second injections of 10 mM Glycine-HCl, pH 2.25, at a flow rate of 30 μL/minute. The Notch3 concentration range tested was 50 nM to 6.25 nM.

Row | Kd [nM] | koff [s⁻¹] | kon [M⁻¹ s⁻¹] | Binder
1 | 7.5 | 0.0039 | 690000 | B1
2 | 11 | 0.0046 | 490000 | B2
3 | 10 | 0.013 | 1.7e+06 | B3
4 | 8.6 | 0.0074 | 1.2e+06 | B4
5 | 9 | 0.006 | 820000 | B5
6 | 8.2 | 0.0064 | 980000 | B6
7 | 8.5 | 0.0037 | 710000 | B7
8 | 10 | 0.0051 | 490000 | B8
9 | 7.6 | 0.084 | 7.4e+06 | B9
10 | 16 | 0.0091 | 900000 | B10
11 | 9.2 | 0.0095 | 1.1e+06 | B11
12 | 14 | 0.0056 | 590000 | B12
13 | 7 | 0.0069 | 710000 | B13

Target: T1, monomeric recombinant human Notch3 …
Assay: SPR BIAcore T100, antibody captured by anti-human IgG Fc, monomeric rhNotch3 analyte, 37 C
Method: (§2) The binding affinities and kinetics of binding of chimeric and humanized antibodies to monomeric recombinant human Notch3 extracellular domain (containing EGF like domains 1-11) fusion protein (monomeric rhNotch3) and monomeric recombinant cynomologus monkey Notch3 extracellular domain (containing EGF like domains 1-12) fusion protein (monomeric rcNotch3) were measured by surface plasmon resonance, using a BIAcore® T100 instrument (GE Healthcare, Piscataway, N.J.).
as §1

Row | Kd [nM] | koff [s⁻¹] | kon [M⁻¹ s⁻¹] | Binder
14 | 3 | 0.0028 | 940000 | B1
15 | 5.9 | 0.0013 | 210000 | B2
16 | 3.4 | 0.009 | 2.7e+06 | B3
17 | 3.3 | 0.0073 | 2.2e+06 | B4
18 | 3.8 | 0.0055 | 1.5e+06 | B5
19 | 3.3 | 0.0055 | 1.7e+06 | B6
20 | 2.9 | 0.0038 | 1.3e+06 | B7
21 | 3.9 | 0.0022 | 560000 | B8
22 | 2.7 | 0.0046 | 1.7e+06 | B9
23 | 3.2 | 0.006 | 1.8e+06 | B10
24 | 3 | 0.0037 | 1.2e+06 | B11
25 | 3.8 | 0.0041 | 1.1e+06 | B12
26 | 5.2 | 0.00094 | 180000 | B13

Target: T2, monomeric recombinant cynomologus monkey Notch3 extracellular domain (containing EGF like domains 1-12) … (cynomologus monkey)
T2 construct: domain: EGF like domains 1-12; also called monomeric rcNotch3
Assay: SPR BIAcore T100, antibody captured by anti-human IgG Fc, monomeric rcNotch3 analyte, 37 C
Method: as §2, §1

Row | Kd [nM] | koff [s⁻¹] | kon [M⁻¹ s⁻¹] | Binder
27 | 9.1 | 0.0029 | 370000 | B1
28 | 15 | 0.0063 | 500000 | B2
29 | 24 | 0.0089 | 380000 | B3
30 | 12 | 0.01 | 910000 | B4
31 | 11 | 0.007 | 660000 | B5
32 | 12 | 0.0062 | 540000 | B6
33 | 11 | 0.0038 | 400000 | B7
34 | 12 | 0.0045 | 440000 | B8
35 | 32 | 0.016 | 500000 | B9
36 | 23 | 0.021 | 980000 | B10
37 | 14 | 0.0056 | 410000 | B11
38 | 12 | 0.01 | 910000 | B12
39 | 9.8 | 0.0032 | 440000 | B13

Target: T2, monomeric recombinant cynomologus …
Assay: SPR BIAcore T100, antibody captured by anti-human IgG Fc, monomeric rcNotch3 analyte, 25 C
Method: as §2, §1
Kinetic parameters were determined using the kinetic function of the BIAevaluation software (GE Healthcare) with double reference subtraction. Kinetic parameters for each antibody, kₐ (association rate constant), kd (dissociation rate constant), and KD (equilibrium dissociation constant) were determined.

Row | Kd [nM] | koff [s⁻¹] | kon [M⁻¹ s⁻¹] | Binder
40 | 5.2 | 0.001 | 200000 | B1
41 | 2.6 | 0.0019 | 760000 | B2
42 | 3.7 | 0.0026 | 720000 | B3
43 | 2.6 | 0.0025 | 960000 | B4
44 | 2.2 | 0.0038 | 1.8e+06 | B5
45 | 2.5 | 0.0019 | 780000 | B6
46 | 7.7 | 0.00094 | 120000 | B7
47 | 2.8 | 0.0025 | 900000 | B8
48 | 18 | 0.0075 | 790000 | B9
49 | 3.4 | 0.0046 | 1.3e+06 | B10
50 | 2.7 | 0.004 | 1.5e+06 | B11
51 | 4 | 0.0032 | 820000 | B12
52 | 1.6 | 0.0045 | 2.8e+06 | B13
